Experimental data reported in the supplement of paper PMC10567573.
± gives the standard deviation.

Assay: protein stability index of a GFP-peptide fusion (GPS, HEK-293T) (PSI 1-6); higher = more stable
[1] = treatment: DMSO, c terminus: a fixed tail appended
[2] = treatment: MLN4924 1 uM, 8 h, c terminus: a fixed tail appended
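Further: 24-mer peptide tiles fused after GFP, lentivirally expressed, FACS-sorted into six equal bins by GFP/DsRed ratio, decoded by Illumina sequencing, PSI is the read-weighted mean bin number.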

Sequence	protein stability index (treatment: DMSO, c terminus: native)	protein stability index (treatment: MLN4924 1 uM, 8 h, c terminus: native)	protein stability index [1]	protein stability index [2]
HRDMKPDNILLDEHDTWLSYKSH [STK32A]	3.68 ± 0.27	3.94 ± 0.27	–	–
HRSSRETRDYAPPSRGHAYRDYGH [RBMY1A1]	–	–	3.87 ± 0.18	3.92 ± 0.17
HSFELDEKALASILLQDHIRDLDV [ATL3]	–	–	3.26 ± 0.33	3.26 ± 0.29
HSFFPDAFDYNSLSPTQRQKNFEL [SMTNL2]	–	–	3.35 ± 0.19	3.44 ± 0.4
HTSTARLLLHRGAGKEAMTSDGYT [RIPK4]	–	–	3.61 ± 0.22	3.75 ± 0.29
HVLPAVLAEVAPVVTTEHILVSVA [PYCR3]	–	–	2.65 ± 0.63	2.8 ± 0.72
HVMNPLETLSITNCRLSEGDVMHL [PRAME]	–	–	2.54 ± 0.79	2.4 ± 0.24
HYANLNGLYGSTVDHQGVSWYHWK [TNXB]	–	–	2.5 ± 0.14	2.8 ± 0.66
HYFHSISYKIEEISPSTLKNSLFP [KCNK9]	–	–	2.17 ± 0.28	2.18 ± 0.18
HYGGVVSLIPLILDLMKEWIAHSE [SPACA9]	–	–	3.02 ± 0.46	2.23 ± 0.46
ICARACNATLTQYQLLATHVPTVW [RHOBTB2]	–	–	2.67 ± 0.13	2.41 ± 0.4
ICIMDAENITTVSVIKDHHTRSIT [WDR88]	–	–	2.34 ± 0.31	2.18 ± 0.24
IDDRYGDLDSRTDSDIPEIPPSSD [CDS1]	–	–	5.43 ± 0.34	5.45 ± 0.19
IEIGCEDKTLAFKMNGYISNANYS [MLH1]	–	–	2.34 ± 0.3	–
IELEGISVMVMREILDYIFSGQIR [GAN]	–	–	3.37 ± 0.23	2.86 ± 0.49
IERANNVKYGLAATVWSSNVGRVH [ALDH8A1]	–	–	2.66 ± 0.29	2.8 ± 0.25
IFCEEHFPVAEQDKLLKHMIIEHK [ZNF277]	–	–	2.75 ± 0.23	3.01 ± 0.4
IFNHERFFWHLTLPERRGTCADRD [CASP6]	–	–	2.6 ± 0.21	2.93 ± 0.27
IGFGVYFEWTDSPNTAVSVHVSES [ACBD3]	–	–	2.64 ± 0.9	2.95 ± 0.6
IGGNHLKGFSHLDVMLVECYDPKG [KLHL14]	–	–	2.11 ± 0.47	2.21 ± 0.34
IGLWGLAVKGSLGSDLGGPLPTDP [TSPAN10]	–	–	2.32 ± 0.27	2.39 ± 0.29
IGRGTKVILHLKEDQTEYLEERRV [HSP90AB1]	–	–	3.34 ± 0.16	3.57 ± 0.29

Sequence	protein stability index (treatment: DMSO, c terminus: native)	protein stability index (treatment: MLN4924 1 uM, 8 h, c terminus: native)	protein stability index [1]	protein stability index [2]
IHDSEFKEYTTRTQAPPSVILGVT [DENND6A]	–	–	3.22 ± 0.17	3.29 ± 0.31
IHSIALSTFASLIGPFGGFFASGF [CDS2]	–	–	3.12 ± 0.2	2.99 ± 0.16
IHSIPKGTEITIAFDFDYGNCKYK [KMT2E]	–	–	2.19 ± 0.31	1.98 ± 0.32
IKECLSKGTFSDVTFKLDDGAISA [RHOBTB1]	–	–	3.67 ± 0.18	3.95 ± 0.19
IKKIEEHAPGVPKILVGNRLHLAF [RAB40A]	–	–	2.39 ± 0.5	2.27 ± 0.2
IKRLWKDSGVQACFNRSREYQLND [GNAI1]	–	–	2.4 ± 0.41	2.44 ± 0.72
ILDAMAEETRQKQLLADEKMKQLT [TRIM35]	–	–	4.52 ± 0.23	4.68 ± 0.21
ILEDMRCQYEALVENNRRDVEAWF [KRT36]	–	–	2.49 ± 0.19	2.84 ± 0.45
ILENSSQKENVFKCDSLKEECIPE [FAN1]	–	–	4.68 ± 0.37	4.95 ± 0.09
ILRAIGKGSFGKVCIVQKNDTKKM [STK32A]	–	–	2.4 ± 0.45	2.56 ± 0.22
ILVMKHNYSQDAADACDIDEIEEV [NETO1]	–	–	4.11 ± 0.16	4.18 ± 0.28
IMNIIDIVSILPYFITLGTDLAQQ [KCNA4]	–	–	3.37 ± 0.44	2.95 ± 0.49
INQPLPDLKNVKSKIGSTDNIKYQ [MAP2]	–	–	4.29 ± 0.17	4.47 ± 0.16
INRCSVLRQLGCKDGKNWNSNQAT [SPOPL]	–	–	2.65 ± 0.28	2.78 ± 0.28
INTLITSGADTAKCGIHSMFPLHL [ANKRD44]	–	–	1.8 ± 0.21	2.64 ± 0.84
INYLGAESLRPLVQTPPGGSEVVP [IKZF1]	–	–	4.07 ± 0.2	3.88 ± 0.28
IPNAASEEGDEDDWASNKVMFKIG [WEE1]	–	–	4.62 ± 0.13	4.28 ± 0.3
IQDVVQPLTLQVQRPLVSVTVSDA [AUP1]	–	–	3.56 ± 0.28	3.58 ± 0.22
IQGYRVYYTMDPTQHVNNWMKHNV [PTPRD]	–	–	2.55 ± 0.25	2.44 ± 0.47
IQQLLEPQQYMAFLPHHIMVKIFR [FBXO34]	–	–	2.13 ± 0.31	2.53 ± 0.29
ISENRKRQWPTKSQTDRGASAGKR [SDE2]	–	–	4.7 ± 0.28	4.94 ± 0.073
ISVQELMGCLGVAKEDGKADTKKR [SMOC2]	–	–	3.88 ± 0.33	3.92 ± 0.59

Sequence	protein stability index (treatment: DMSO, c terminus: native)	protein stability index (treatment: MLN4924 1 uM, 8 h, c terminus: native)	protein stability index [1]	protein stability index [2]
ITAGGENVPPIPVETLVKKKIPII [ACSBG2]	–	–	3.71 ± 0.32	3.96 ± 0.34
ITFSGRPSRVHASEVESAVWYVKK [FBXO39]	–	–	2.41 ± 0.21	2.68 ± 0.32
IVNQWSEKFSDEGDSDSALDSVSP [DLC1]	–	–	5.32 ± 0.18	5.24 ± 0.23
IYGRSQNPVQPIGPQTPKACDSKL [MMP1]	–	–	4.15 ± 0.17	4.08 ± 0.12
IYRHRIPSTICFGQGAARGFKSNK [ZNF511]	–	–	3 ± 0.37	3.64 ± 0.13
KAFWKEDNALWERDRNLLQEDKAL [CCDC70]	–	–	4.16 ± 0.081	4.24 ± 0.18
KAKFCSTVANDVMLRTGLGVIRMW [NETO1]	–	–	2.7 ± 0.51	2.27 ± 0.29
KAMFSGRVEVLTDAGGWVLIDRSG [KCTD13]	–	–	2.19 ± 0.21	2.48 ± 0.47
KARSNSTLSKSEYMVIEEGGMNHS [KCNA3]	–	–	4.57 ± 0.38	4.33 ± 0.15
KCCGMRNTDVSMENMVTVGFFSCM [KCNK9]	–	–	2.59 ± 0.48	2.51 ± 0.44
KDRECQSQSLALKEQNNLKQLEFG [ZNF8]	–	–	4.56 ± 0.3	4.78 ± 0.63
KEDNSLLNQGFLQAKPEKAAVAQK [MYBL2]	–	–	5.26 ± 0.12	5.14 ± 0.56
KEEKEDEISLEDLIERERSALGPN [ZC3H15]	–	–	5.31 ± 0.35	5.26 ± 0.37
KEHWTPEGHSIVGFAMYYFTYDPW [SAT1]	–	–	3.05 ± 0.44	3.1 ± 0.43
KEIDDVIDEIISLESSYNDEMLSY [TFE3]	–	–	3.27 ± 0.26	3.5 ± 0.3
KETEFLRLKRTRLGLDDFESLKVI [STK38L]	–	–	2.44 ± 0.16	2.56 ± 0.34
KFSHSGRYMLTRDYLTVKVWDLNM [PPP2R2C]	–	–	2.35 ± 0.23	2.33 ± 0.31
KIANLGSCNDSKLEFRSFWELIGE [S100A14]	–	–	1.91 ± 0.33	2.11 ± 0.38
KIGVGAMTWSPLACGIVSGKYDSG [KCNAB2]	–	–	2.81 ± 0.27	2.85 ± 0.61
KIIICSQNEEYLLTYINEDRISTT [PLK2]	–	–	2.02 ± 0.35	2.06 ± 0.36
KIRRFNKAKPEPDILEEEKIYAYP [TMEM192]	–	–	3.27 ± 0.35	3.54 ± 0.52
